Source: PMC3793935
The star is where a group is joined. NH(3-CONH2-4-NO2-Ph) = NC(=O)c1cc(N*)ccc1[N+](=O)[O-]

T1: GS-SplD, recombinant SplD protease containing the Gly-Ser dipeptide at the N-terminus (Staphylococcus aureus strain 8325-4) (UniProt Q2FXC5)
T1 sequence: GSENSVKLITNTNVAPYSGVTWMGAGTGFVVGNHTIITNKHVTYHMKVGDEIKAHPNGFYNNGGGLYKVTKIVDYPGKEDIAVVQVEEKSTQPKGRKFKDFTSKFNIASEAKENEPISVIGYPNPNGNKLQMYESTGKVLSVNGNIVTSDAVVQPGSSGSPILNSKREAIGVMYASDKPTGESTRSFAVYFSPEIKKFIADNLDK


Target: T1, GS-SplD, recombinant SplD protease containing the Gly-Ser dipeptide at the N-terminus (Staphylococcus aureus strain 8325-4)

Binder	Km of hydrolysis of the fluorescence-quenched peptide substrate by wild type SplD
{ABZ}-WLVS-{NH(3-CONH2-4-NO2-Ph)-NH2} [ABZ-Trp-Leu-Val-Ser-ANB-NH2]	31.1 µM
{ABZ}-WLTS-{NH(3-CONH2-4-NO2-Ph)-NH2} [ABZ-Trp-Leu-Thr-Ser-ANB-NH2]	14.7 µM
